Article PMC6680207, “ZmpTAC12 binds single‐stranded nucleic acids and is essential for accumulation of the plastid‐encoded polymerase complex in maize”

Assays:
[1] = biological target: T1, rMBP-pTAC12 (ZmpTAC12) (Zea mays, UniProt B4FZ81 72-555); assay: EMSA; c. 100 pM probe; EMSA; 1 ug/ul heparin (ssRNA assays), c. 100 pM radiolabeled 50mer; buffer, salt, pH and temperature not in the material; conditions: protein: recombinant; tags: N-terminal MBP fusion; label: 5' end radiolabel (T4 PNK)
T1 sequence: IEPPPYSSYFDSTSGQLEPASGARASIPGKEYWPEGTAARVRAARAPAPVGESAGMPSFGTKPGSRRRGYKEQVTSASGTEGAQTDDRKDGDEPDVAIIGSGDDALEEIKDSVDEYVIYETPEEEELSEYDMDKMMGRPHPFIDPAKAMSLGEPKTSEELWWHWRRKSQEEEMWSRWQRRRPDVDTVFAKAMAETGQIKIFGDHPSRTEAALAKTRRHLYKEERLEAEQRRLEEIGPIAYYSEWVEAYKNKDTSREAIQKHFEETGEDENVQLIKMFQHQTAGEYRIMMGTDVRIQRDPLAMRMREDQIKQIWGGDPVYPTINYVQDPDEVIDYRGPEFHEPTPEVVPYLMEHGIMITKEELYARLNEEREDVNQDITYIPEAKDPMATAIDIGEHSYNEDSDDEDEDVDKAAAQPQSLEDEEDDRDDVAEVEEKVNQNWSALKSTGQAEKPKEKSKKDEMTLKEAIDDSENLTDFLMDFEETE

[2] = biological target: T1, rMBP-pTAC12 (ZmpTAC12); assay: EMSA; 100 pM dsDNA; EMSA; 1 ug/ul heparin (ssRNA assays), c. 100 pM radiolabeled 50mer; buffer, salt, pH and temperature not in the material; conditions: protein: recombinant; tags: N-terminal MBP fusion; label: 5' end radiolabel (T4 PNK); blunt
[3] = biological target: T1, rMBP-pTAC12 (ZmpTAC12); assay: EMSA; 1 ug/ul heparin; c. 100 pM probe; EMSA; 1 ug/ul heparin (ssRNA assays), c. 100 pM radiolabeled 50mer; buffer, salt, pH and temperature not in the material; conditions: protein: recombinant; tags: N-terminal MBP fusion; label: radiolabeled

B1: psaAB-150 ssDNA (ssDNA)
DNA: TAATTGCTCCAGTGAATAACTAAAAAAAAAAATAGAAGGACGGTAGATAG
B1: binds [1].

B2: psaAB-150 dsDNA (dsDNA)
DNA 1: TAATTGCTCCAGTGAATAACTAAAAAAAAAAATAGAAGGACGGTAGATAG
DNA 2: CTATCTACCGTCCTTCTATTTTTTTTTTTAGTTATTCACTGGAGCAATTA
B2: no binding [2].

B3: psaAB-150 ssRNA (ssRNA)
RNA: GGUAAUUGCUCCAGUGAAUAACUAAAAAAAAAAAUAGAAGGACGGUAGAUAG
B3: binds [3].
